Reference: patent publication US6403769

Assays:
[1] = target: keratinocyte growth factor receptor (KGFR) (UniProt P21803); experiment: cell-based or functional assay
[2] = target: keratinocyte growth factor receptor (KGFR) (UniProt P21803); experiment: competition with 125I-KGF on 32D cells expressing KGFR
[3] = target: KGFR-HFc fusion protein (construct not specified); experiment: binding of 125I-KGF to KGFR-HFc in solution, capture on Gamma Bind G

half-maximal stimulation of 3H-thymidine uptake in BALB/MK cells [1]: 10 pM
Kd [2]: 0.13 nM
ligand concentration at which saturable binding was achieved [3]: 15 to 25 ng/mL
B1: keratinocyte growth factor (KGF) (ligand, human, UniProt P21781 32-194, looked up)
chain: CNDMTPEQMATNVNCSSPERHTRSYDYMEGGDIRVRRLFCRTQWYLRIDKRGKVKGTQEMKNNYNIMEIRTVAVGIVAIKGVESEFYLAMNKEGKLYAKKECNEDCNFKELILENHYNTYASAKWTHNGGEMFVALNQKGIPVRGKKTKKEQKTAHFLPMAIT
